In article PMC7041945, “Misfolded proteins bind and activate death receptor 5 to trigger apoptosis during unresolved endoplasmic reticulum stress” (eLife, 2020):

What was measured:
HCT116 cells [1] = test: Annexin V (and SytoxBlue) flow cytometry for apoptosis; type: cell-based, Homo sapiens; conditions: for Mean ± SEM (Fig 1S2D): n=3
Procedure: Cells seeded in a 6-well plate were transfected with the specified plasmid for 24 hr and harvested via trypsinization in complete media to allow a 30 min recovery at 37°C. The samples were then centrifuged at 500xg for 5 min and resuspended In 150 μl of a 1:20 dilution of Annexin V-AlexaFluor 647 conjugate (Thermo Scientific #A23204). Samples were transferred to a 96-well U-bottom plate and incubated in the dark for 15 min at RT. The distribution of apoptotic cells was determined by flow cytometry on a BD LSR II.

HCT116 cells [2] = test: Trypan blue staining, automated cell counting; type: cell-based, Homo sapiens; set-up: key to Trypan blue- / Trypan blue+ / avg Trypan blue- / avg Trypan blue+: % of cells (Trypan blue positive or negative); conditions: for avg Trypan blue+ / avg Trypan blue-: avg of Rep 1-3; for Dead concentration / Live concentration / Total Concentration / Viability (%): BF
Procedure: Cells seeded in a 6-well plate were transfected with the specified plasmid for 24 hr and harvested via trypsinization in complete media and ultimately resuspended in 400 μl of media to obtain a concentration of 1.0–3.0 × 10^6 cells/ml. The cell suspension was then mixed 1:1 with 0.4% Trypan blue (Sigma-Aldrich) and incubated at 37°C for 30 min. The percentage of cells staining positive for was then quantified using the Countess II FL Automated Cell Counter (ThermoFisher, catalog # AMQAF1000) default brightfield settings with disposable slides.

[3] = hct chop 62, biological replicate 1 (05.22.2019)
[4] = hct chop 125 (ng), biological replicate 1 (05.22.2019)
[5] = hct chop 125 (ng), biological replicate 2 (05.24.2019)
[6] = hct chop 125 (ng), biological replicate 3 (05.24.2019)
[7] = hct chop 250 (ng), biological replicate 1 (05.22.2019)
[8] = hct chop 250 (ng), biological replicate 2 (05.24.2019)
[9] = hct chop 250 (ng), biological replicate 3 (05.24.2019)
[10] = hct chop 500 (ng), biological replicate 1 (05.22.2019)
[11] = hct chop 500 (ng), biological replicate 2 (05.24.2019)
[12] = hct chop 500 (ng), biological replicate 3 (05.24.2019)
[13] = hct chop 1000 (ng), biological replicate 1 (05.24.2019)
[14] = hct chop 1000 (ng), biological replicate 2 (05.24.2019)
[15] = hct chop 1000 (ng), biological replicate 3 (05.24.2019)

B1: CHOP: CHOP (canonical isoform) expression vector, expression of CHOP in absence of ER stress (protein, UniProt P35638 1-169, looked up)
DNA damage-inducible …: MAAESLPFSFGTLSSWELEAWYEDLQEVLSSDENGGTYVSPPGNEEEESKIFTTLDPASLAWLTEEEPEPAEVTSTSQSPHSPDSSQSSLAQEEEEEDQGRTRKRKQSGHSPARAGKQRMKEKEQENERKVAQLAEENERLKQEIERLTREVEATRRALIDRMVNLHQA
modifications: expression vector
notes: CHOP (canonical isoform) expression vector, expression of CHOP in absence of ER stress
For B1, the Difference between means (HCT116 cells [1]; CHOP - 125 ng vs. empty, Welch's correction) was 0.4983 ± 1.264, the “Mean ± SEM (Fig 1S2D)” value (HCT116 cells [1]; CHOP - 125 ng) was 4.046 ± 0.1409, n=3 and the Difference between means (HCT116 cells [1]; CHOP - 250 ng vs. CHOP - 125 ng, Welch's correction) was 4.057 ± 2.101. The “Mean ± SEM (Fig 1S2D)” value (HCT116 cells [1]; CHOP - 250 ng) was 8.103 ± 2.097, n=3, the Difference between means (HCT116 cells [1]; CHOP - 500 ng vs. CHOP - 125 ng, Welch's correction) was 4.960 ± 2.593 and the Difference between means (HCT116 cells [1]; CHOP - 500 ng vs. CHOP - 250 ng, unpaired t test) was 0.9028 ± 3.332. For the same molecule, the Difference between means (HCT116 cells [1]; CHOP - 500 ng vs. MPZ-GFP, unpaired t test) was -28.90 ± 5.936, the Difference between means (HCT116 cells [1]; CHOP - 500 ng vs. empty, unpaired t test) was 5.458 ± 2.878 and the “Mean ± SEM (Fig 1S2D)” value (HCT116 cells [1]; CHOP - 500 ng) was 9.006 ± 2.589, n=3. The “Trypan blue+” value (HCT116 cells [2]; CHOP - 125 ng, Rep 1) was 4.216, the Trypan blue- (HCT116 cells [2]; CHOP - 125 ng, Rep 1) was 95.7841 and the “Trypan blue+” value (HCT116 cells [2]; CHOP - 125 ng, Rep 2) was 3.766. For the same molecule, the Trypan blue- (HCT116 cells [2]; CHOP - 125 ng, Rep 2) was 96.2338, the “Trypan blue+” value (HCT116 cells [2]; CHOP - 125 ng, Rep 3) was 4.155 and the Trypan blue- (HCT116 cells [2]; CHOP - 125 ng, Rep 3) was 95.8447. The “avg Trypan blue+” value (HCT116 cells [2]; CHOP - 125 ng) was 4.046, the “avg Trypan blue-” value (HCT116 cells [2]; CHOP - 125 ng) was 95.9542 and the “Trypan blue+” value (HCT116 cells [2]; CHOP - 250 ng, Rep 1) was 6.303. The Trypan blue- (HCT116 cells [2]; CHOP - 250 ng, Rep 1) was 93.6968, the “Trypan blue+” value (HCT116 cells [2]; CHOP - 250 ng, Rep 2) was 12.2829 and the Trypan blue- (HCT116 cells [2]; CHOP - 250 ng, Rep 2) was 87.7171. The “Trypan blue+” value (HCT116 cells [2]; CHOP - 250 ng, Rep 3) was 5.723, the Trypan blue- (HCT116 cells [2]; CHOP - 250 ng, Rep 3) was 94.2771 and the “avg Trypan blue+” value (HCT116 cells [2]; CHOP - 250 ng) was 8.103. The “avg Trypan blue-” value (HCT116 cells [2]; CHOP - 250 ng) was 91.897, the “Trypan blue+” value (HCT116 cells [2]; CHOP - 500 ng, Rep 1) was 14.1844 and the Trypan blue- (HCT116 cells [2]; CHOP - 500 ng, Rep 1) was 85.8156. The “Trypan blue+” value (HCT116 cells [2]; CHOP - 500 ng, Rep 2) was 6.367, the Trypan blue- (HCT116 cells [2]; CHOP - 500 ng, Rep 2) was 93.633 and the “Trypan blue+” value (HCT116 cells [2]; CHOP - 500 ng, Rep 3) was 6.466. For the same molecule, the Trypan blue- (HCT116 cells [2]; CHOP - 500 ng, Rep 3) was 93.534, the “avg Trypan blue+” value (HCT116 cells [2]; CHOP - 500 ng) was 9.006 and the “avg Trypan blue-” value (HCT116 cells [2]; CHOP - 500 ng) was 90.9942. The “Trypan blue+” value (HCT116 cells [2]; CHOP - 1000 ng, Rep 1) was 8.481, the Trypan blue- (HCT116 cells [2]; CHOP - 1000 ng, Rep 1) was 91.5194 and the “Trypan blue+” value (HCT116 cells [2]; CHOP - 1000 ng, Rep 2) was 6.72. The Trypan blue- (HCT116 cells [2]; CHOP - 1000 ng, Rep 2) was 93.2796, the “Trypan blue+” value (HCT116 cells [2]; CHOP - 1000 ng, Rep 3) was 4.533 and the Trypan blue- (HCT116 cells [2]; CHOP - 1000 ng, Rep 3) was 95.4674. For the same molecule, the “avg Trypan blue+” value (HCT116 cells [2]; CHOP - 1000 ng) was 6.578, the “avg Trypan blue-” value (HCT116 cells [2]; CHOP - 1000 ng) was 93.4221 and the “PARP cleavage and trypan blue staining vs misfolded-protein stress” value (HCT116 cells [2]; comparable CHOP-induced DR5 protein, no ER stress) was “drastically lower levels of PARP cleavage and trypan blue staining”. For the same molecule, the Dead concentration (HCT116 cells [2]; [3]) was 1.35E+05, the Live concentration (HCT116 cells [2]; [3]) was 2.23E+06 and the “Total Concentration” value (HCT116 cells [2]; [3]) was 2.36E+06. For the same molecule, the “Viability (%)” value (HCT116 cells [2]; [3]) was 94.2928%, the Dead concentration (HCT116 cells [2]; [4]) was 1.47E+05 and the Live concentration (HCT116 cells [2]; [4]) was 3.33E+06. For the same molecule, the “Total Concentration” value (HCT116 cells [2]; [4]) was 3.48E+06, the “Viability (%)” value (HCT116 cells [2]; [4]) was 95.7841% and the Dead concentration (HCT116 cells [2]; [5]) was 3.40E+05. For the same molecule, the Live concentration (HCT116 cells [2]; [5]) was 8.69E+06, the “Total Concentration” value (HCT116 cells [2]; [5]) was 9.03E+06 and the “Viability (%)” value (HCT116 cells [2]; [5]) was 96.2338%. For the same molecule, the Dead concentration (HCT116 cells [2]; [6]) was 8.03E+05, the Live concentration (HCT116 cells [2]; [6]) was 1.85E+07 and the “Total Concentration” value (HCT116 cells [2]; [6]) was 1.93E+07. The “Viability (%)” value (HCT116 cells [2]; [6]) was 95.8447%, the Dead concentration (HCT116 cells [2]; [7]) was 2.17E+05 and the Live concentration (HCT116 cells [2]; [7]) was 3.23E+06. The “Total Concentration” value (HCT116 cells [2]; [7]) was 3.44E+06, the “Viability (%)” value (HCT116 cells [2]; [7]) was 93.6968% and the Dead concentration (HCT116 cells [2]; [8]) was 5.81E+05. For the same molecule, the Live concentration (HCT116 cells [2]; [8]) was 4.15E+06, the “Total Concentration” value (HCT116 cells [2]; [8]) was 4.73E+06 and the “Viability (%)” value (HCT116 cells [2]; [8]) was 87.7171%. For the same molecule, the Dead concentration (HCT116 cells [2]; [9]) was 6.69E+05, the Live concentration (HCT116 cells [2]; [9]) was 1.10E+07 and the “Total Concentration” value (HCT116 cells [2]; [9]) was 1.17E+07. The “Viability (%)” value (HCT116 cells [2]; [9]) was 94.2771%, the Dead concentration (HCT116 cells [2]; [10]) was 3.52E+05 and the Live concentration (HCT116 cells [2]; [10]) was 2.13E+06. For the same molecule, the “Total Concentration” value (HCT116 cells [2]; [10]) was 2.48E+06, the “Viability (%)” value (HCT116 cells [2]; [10]) was 85.8156% and the Dead concentration (HCT116 cells [2]; [11]) was 2.99E+05. The Live concentration (HCT116 cells [2]; [11]) was 4.40E+06, the “Total Concentration” value (HCT116 cells [2]; [11]) was 4.70E+06 and the “Viability (%)” value (HCT116 cells [2]; [11]) was 93.633%. The Dead concentration (HCT116 cells [2]; [12]) was 3.40E+05, the Live concentration (HCT116 cells [2]; [12]) was 4.92E+06 and the “Total Concentration” value (HCT116 cells [2]; [12]) was 5.26E+06. For the same molecule, the “Viability (%)” value (HCT116 cells [2]; [12]) was 93.534%, the Dead concentration (HCT116 cells [2]; [13]) was 2.82E+05 and the Live concentration (HCT116 cells [2]; [13]) was 3.04E+06. For the same molecule, the “Total Concentration” value (HCT116 cells [2]; [13]) was 3.32E+06, the “Viability (%)” value (HCT116 cells [2]; [13]) was 91.5194% and the Dead concentration (HCT116 cells [2]; [14]) was 2.93E+05. For the same molecule, the Live concentration (HCT116 cells [2]; [14]) was 4.07E+06, the “Total Concentration” value (HCT116 cells [2]; [14]) was 4.36E+06 and the “Viability (%)” value (HCT116 cells [2]; [14]) was 93.2796%. For the same molecule, the Dead concentration (HCT116 cells [2]; [15]) was 1.88E+05, the Live concentration (HCT116 cells [2]; [15]) was 3.95E+06 and the “Total Concentration” value (HCT116 cells [2]; [15]) was 4.14E+06. For the same molecule, the “Viability (%)” value (HCT116 cells [2]; [15]) was 95.4674%.
